# Data as given in US20250235548A1 (Zymeworks, published 2025).
# Changes are numbered by the printed parent chain. Read-outs that look alike come from different tables or passages of the source.
# T1: human sodium-dependent phosphate transporter 2B (NaPi2b) (human, UniProt O95436 1-690)
# T1 sequence: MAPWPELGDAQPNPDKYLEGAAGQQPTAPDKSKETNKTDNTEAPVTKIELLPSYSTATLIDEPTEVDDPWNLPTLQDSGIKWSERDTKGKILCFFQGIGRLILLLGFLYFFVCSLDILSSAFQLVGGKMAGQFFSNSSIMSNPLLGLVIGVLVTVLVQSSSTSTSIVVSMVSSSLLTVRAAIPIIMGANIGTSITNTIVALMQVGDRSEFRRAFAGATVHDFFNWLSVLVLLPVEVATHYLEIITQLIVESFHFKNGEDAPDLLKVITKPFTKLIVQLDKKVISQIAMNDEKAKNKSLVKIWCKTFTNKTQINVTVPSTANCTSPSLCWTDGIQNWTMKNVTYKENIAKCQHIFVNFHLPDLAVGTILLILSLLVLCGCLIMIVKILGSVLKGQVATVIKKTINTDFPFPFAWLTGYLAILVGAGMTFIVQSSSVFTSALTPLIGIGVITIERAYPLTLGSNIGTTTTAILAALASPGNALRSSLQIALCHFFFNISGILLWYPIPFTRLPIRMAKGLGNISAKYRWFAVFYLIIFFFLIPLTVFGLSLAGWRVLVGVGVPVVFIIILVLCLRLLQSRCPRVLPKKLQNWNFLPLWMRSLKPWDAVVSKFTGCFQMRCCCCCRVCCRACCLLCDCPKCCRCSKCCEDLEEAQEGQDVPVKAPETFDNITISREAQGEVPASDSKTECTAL
# T2: human sodium-dependent phosphate transporter 2B (NaPi2b) (human, UniProt O95436 1-690)
# T2 construct: also called hNaPi2b; Hu NaPi2b
# T2 sequence: T1 sequence
# T3: cynomolgus monkey NaPi2b (cynomolgus monkey, UniProt O95436 1-690 (human entry))
# T3 construct: also called Cyno NaPi2b; Cy NaPi2b
# T3 chain: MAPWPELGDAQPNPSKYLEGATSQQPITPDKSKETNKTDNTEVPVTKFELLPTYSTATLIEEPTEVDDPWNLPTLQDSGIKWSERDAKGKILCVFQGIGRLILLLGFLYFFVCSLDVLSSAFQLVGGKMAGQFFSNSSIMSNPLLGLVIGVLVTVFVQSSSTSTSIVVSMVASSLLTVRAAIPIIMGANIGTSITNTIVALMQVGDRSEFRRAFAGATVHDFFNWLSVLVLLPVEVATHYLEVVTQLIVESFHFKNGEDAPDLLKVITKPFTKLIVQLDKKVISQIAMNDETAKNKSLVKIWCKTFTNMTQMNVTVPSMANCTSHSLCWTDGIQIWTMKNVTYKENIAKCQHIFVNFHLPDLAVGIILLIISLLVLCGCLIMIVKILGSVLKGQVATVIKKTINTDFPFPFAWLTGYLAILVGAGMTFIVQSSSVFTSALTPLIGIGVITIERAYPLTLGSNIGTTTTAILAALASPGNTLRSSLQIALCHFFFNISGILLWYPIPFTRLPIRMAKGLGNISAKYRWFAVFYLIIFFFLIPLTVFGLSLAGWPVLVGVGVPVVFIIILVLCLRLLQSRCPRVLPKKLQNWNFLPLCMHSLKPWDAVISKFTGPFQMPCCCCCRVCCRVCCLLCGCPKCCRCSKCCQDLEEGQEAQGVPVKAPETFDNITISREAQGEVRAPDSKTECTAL
# B1: v18993 (lifastuzumab)-MCvcPABC-MMAE DAR 4 (antibody, human IgG1, kappa)
# heavy 1: GEVQLVESGGGLVQPGGSLRLSCAASGFSFSDFAMSWVRQAPGKGLEWVATIGRVAFHTYYPDSMKGRFTISRDNSKNTLYLQMNSLRAEDTAVYYCARHRGFDVGHFDFWGQGTLVTVSSASTKGPSVFPLAPSSKSTSGGTAALGCLVKDYFPEPVTVSWNSGALTSGVHTFPAVLQSSGLYSLSSVVTVPSSSLGTQTYICNVNHKPSNTKVDKKVEPKSCDKTHTCPPCPAPELLGGPSVFLFPPKPKDTLMISRTPEVTCVVVDVSHEDPEVKFNWYVDGVEVHNAKTKPREEQYNSTYRVVSVLTVLHQDWLNGKEYKCKVSNKALPAPIEKTISKAKGQPREPQVYVYPPSRDELTKNQVSLTCLVKGFYPSDIAVEWESNGQPENNYKTTPPVLDSDGSFALVSKLTVDKSRWQQGNVFSCSVMHEALHNHYTQKSLSLSPG
# heavy 2: not shown
# light: GDIQMTQSPSSLSASVGDRVTITCRSSETLVHSSGNTYLEWYQQKPGKAPKLLIYRVSNRFSGVPSRFSGSGSGTDFTLTISSLQPEDFATYYCFQGSFNPLTFGQGTKVEIKRTVAAPSVFIFPPSDEQLKSGTASVVCLLNNFYPREAKVQWKVDNALQSGNSQESVTEQDSKDSTYSLSSTLTLSKADYEKHKVYACEVTHQGLSSPVTKSFNRGEC
# modifications: MCvcPABC-MMAE drug-linker; DAR 4 for the whole antibody; attachment residues not stated
# B2: v29456-MT-GGFG-Compound 140 DAR 8 (antibody, human IgG1, kappa)
# heavy: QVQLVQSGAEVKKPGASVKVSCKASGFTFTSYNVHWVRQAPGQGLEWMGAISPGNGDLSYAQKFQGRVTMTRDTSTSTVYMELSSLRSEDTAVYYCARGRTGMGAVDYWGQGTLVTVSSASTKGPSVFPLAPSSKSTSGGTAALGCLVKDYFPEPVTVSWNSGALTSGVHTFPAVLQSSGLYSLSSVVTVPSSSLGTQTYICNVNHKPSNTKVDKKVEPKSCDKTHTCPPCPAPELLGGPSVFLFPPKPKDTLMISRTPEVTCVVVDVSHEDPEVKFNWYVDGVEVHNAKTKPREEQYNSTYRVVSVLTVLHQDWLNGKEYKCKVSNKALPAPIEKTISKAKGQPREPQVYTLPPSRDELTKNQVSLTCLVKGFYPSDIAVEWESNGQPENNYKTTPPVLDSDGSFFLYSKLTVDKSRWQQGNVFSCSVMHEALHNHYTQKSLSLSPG
# light: DVQMTQSPSSLSASVGDRVTITCRASQDVYSYLNWYQQKPGKAVKLLIYYTSRLQSGVPSRFSGSGSGTDYTLTISSLQPEDFATYYCQQYNIFPWTFGQGTKLEIKRTVAAPSVFIFPPSDEQLKSGTASVVCLLNNFYPREAKVQWKVDNALQSGNSQESVTEQDSKDSTYSLSSTLTLSKADYEKHKVYACEVTHQGLSSPVTKSFNRGEC
# modifications: MT-GGFG-Compound 140 drug-linker on reduced cysteines (maleimide); DAR 8 for the whole antibody
# B3: v29456-MC-GGFG-Compound 141 DAR 8 (antibody, human IgG1, kappa)
# heavy: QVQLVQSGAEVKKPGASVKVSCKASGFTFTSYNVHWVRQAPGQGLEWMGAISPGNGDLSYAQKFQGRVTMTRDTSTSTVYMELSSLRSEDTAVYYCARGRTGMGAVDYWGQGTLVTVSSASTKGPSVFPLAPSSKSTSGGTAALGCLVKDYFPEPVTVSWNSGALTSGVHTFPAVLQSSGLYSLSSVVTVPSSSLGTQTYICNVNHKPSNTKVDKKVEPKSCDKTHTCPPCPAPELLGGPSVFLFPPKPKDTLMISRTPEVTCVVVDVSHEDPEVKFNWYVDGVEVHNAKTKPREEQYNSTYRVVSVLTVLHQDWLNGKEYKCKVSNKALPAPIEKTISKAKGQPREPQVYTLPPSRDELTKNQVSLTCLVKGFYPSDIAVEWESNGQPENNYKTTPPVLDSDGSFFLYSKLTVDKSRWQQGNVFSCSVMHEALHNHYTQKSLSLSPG
# light: B2 light
# modifications: MC-GGFG-Compound 141 drug-linker on reduced cysteines (maleimide); DAR 8 for the whole antibody
# B4: v29456-MC-GGFG-AM-DXd1 DAR 8 (antibody, human IgG1, kappa)
# heavy: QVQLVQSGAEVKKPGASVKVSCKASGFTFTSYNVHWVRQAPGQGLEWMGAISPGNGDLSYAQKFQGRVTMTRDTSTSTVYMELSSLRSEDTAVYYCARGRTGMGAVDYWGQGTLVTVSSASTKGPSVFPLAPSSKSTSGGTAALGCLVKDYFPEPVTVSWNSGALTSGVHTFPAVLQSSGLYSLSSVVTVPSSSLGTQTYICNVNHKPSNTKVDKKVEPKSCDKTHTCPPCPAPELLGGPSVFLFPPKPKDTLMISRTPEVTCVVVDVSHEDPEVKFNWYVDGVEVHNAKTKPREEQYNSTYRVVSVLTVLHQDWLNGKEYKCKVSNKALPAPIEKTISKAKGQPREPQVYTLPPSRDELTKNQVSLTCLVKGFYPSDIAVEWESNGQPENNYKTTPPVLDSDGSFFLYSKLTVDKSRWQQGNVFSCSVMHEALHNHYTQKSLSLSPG
# light: B2 light
# modifications: MC-GGFG-AM-DXd1 drug-linker on reduced cysteines (maleimide); DAR 8 for the whole antibody
# B5: v29456-MT-GGFG-AM-Compound 141 DAR 8 (antibody, human IgG1, kappa)
# heavy: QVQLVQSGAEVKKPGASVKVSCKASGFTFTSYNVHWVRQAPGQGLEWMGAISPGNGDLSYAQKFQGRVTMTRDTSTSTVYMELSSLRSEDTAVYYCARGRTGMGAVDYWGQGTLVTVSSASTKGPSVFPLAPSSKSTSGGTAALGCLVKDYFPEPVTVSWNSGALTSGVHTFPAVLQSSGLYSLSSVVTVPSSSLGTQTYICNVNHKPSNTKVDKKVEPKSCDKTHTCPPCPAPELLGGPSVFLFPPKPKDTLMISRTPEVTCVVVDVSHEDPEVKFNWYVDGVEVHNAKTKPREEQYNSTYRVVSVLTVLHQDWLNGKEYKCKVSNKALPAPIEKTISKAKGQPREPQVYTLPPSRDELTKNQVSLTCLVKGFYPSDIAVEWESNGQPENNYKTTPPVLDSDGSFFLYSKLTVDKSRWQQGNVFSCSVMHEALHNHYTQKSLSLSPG
# light: B2 light
# modifications: MT-GGFG-AM-Compound 141 drug-linker on reduced cysteines (maleimide); DAR 8 for the whole antibody
# B6: v29456-MC-GGFG-AM-Compound 139 DAR 4 (antibody, human IgG1, kappa)
# heavy: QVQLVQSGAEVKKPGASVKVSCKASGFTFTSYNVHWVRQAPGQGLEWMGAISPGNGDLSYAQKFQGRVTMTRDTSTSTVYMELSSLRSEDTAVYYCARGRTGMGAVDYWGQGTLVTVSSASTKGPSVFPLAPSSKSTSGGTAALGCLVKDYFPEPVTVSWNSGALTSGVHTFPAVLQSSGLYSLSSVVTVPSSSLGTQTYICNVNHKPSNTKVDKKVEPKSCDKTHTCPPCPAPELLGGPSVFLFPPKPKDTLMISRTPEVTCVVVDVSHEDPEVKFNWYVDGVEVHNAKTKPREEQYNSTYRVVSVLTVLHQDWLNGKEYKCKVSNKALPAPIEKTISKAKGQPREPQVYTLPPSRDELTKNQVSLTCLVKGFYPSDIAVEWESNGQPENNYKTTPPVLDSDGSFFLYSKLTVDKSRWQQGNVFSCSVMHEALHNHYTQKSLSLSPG
# light: B2 light
# modifications: MC-GGFG-AM-Compound 139 drug-linker on reduced cysteines (maleimide); target DAR 4, printed DAR 3.4, for the whole antibody
# B7: v29456-MC-GGFG-Compound 141 DAR 4 (antibody, human IgG1, kappa)
# heavy: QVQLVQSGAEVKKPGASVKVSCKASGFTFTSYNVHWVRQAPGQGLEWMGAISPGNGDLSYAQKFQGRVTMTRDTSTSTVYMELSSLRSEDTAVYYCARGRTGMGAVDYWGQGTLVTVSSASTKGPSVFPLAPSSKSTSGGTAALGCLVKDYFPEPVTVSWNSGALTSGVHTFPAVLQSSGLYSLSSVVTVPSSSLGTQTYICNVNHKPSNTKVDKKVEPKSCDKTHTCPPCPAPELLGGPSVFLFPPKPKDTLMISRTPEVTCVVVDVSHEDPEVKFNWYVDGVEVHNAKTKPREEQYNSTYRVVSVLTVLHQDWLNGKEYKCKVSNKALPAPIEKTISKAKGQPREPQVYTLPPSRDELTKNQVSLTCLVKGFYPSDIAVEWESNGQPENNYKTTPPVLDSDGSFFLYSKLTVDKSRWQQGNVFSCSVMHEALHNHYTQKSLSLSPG
# light: B2 light
# modifications: MC-GGFG-Compound 141 drug-linker on reduced cysteines (maleimide); target DAR 4, printed DAR 3.4, for the whole antibody
# B8: v29456-MC-GGFG-AM-Compound 139 DAR 8 (antibody, human IgG1, kappa)
# heavy: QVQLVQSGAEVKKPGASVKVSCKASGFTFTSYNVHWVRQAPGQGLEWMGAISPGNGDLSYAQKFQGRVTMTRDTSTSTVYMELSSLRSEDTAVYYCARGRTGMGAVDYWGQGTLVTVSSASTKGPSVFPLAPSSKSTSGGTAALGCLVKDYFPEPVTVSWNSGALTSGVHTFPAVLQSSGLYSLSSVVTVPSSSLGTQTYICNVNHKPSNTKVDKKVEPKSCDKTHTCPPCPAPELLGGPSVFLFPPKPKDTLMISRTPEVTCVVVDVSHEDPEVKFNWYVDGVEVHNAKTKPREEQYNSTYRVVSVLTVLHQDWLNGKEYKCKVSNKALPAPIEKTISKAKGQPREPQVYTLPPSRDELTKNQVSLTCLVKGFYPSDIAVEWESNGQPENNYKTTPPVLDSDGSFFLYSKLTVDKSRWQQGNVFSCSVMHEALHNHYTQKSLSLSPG
# light: B2 light
# modifications: MC-GGFG-AM-Compound 139 drug-linker on reduced cysteines (maleimide); DAR 8 for the whole antibody
# B9: v23855, parental mouse-human chimeric anti-NaPi2b antibody (antibody, human IgG1, kappa, V domains shown)
# VH: QAYLQQSGAELVRPGASVKMSCKASGFTFTSYNVHWVKQTPRQGLEWIAAISPGNGDLSYNQRFKDKATLTVDRSSSTAYMQLSGLTSEDSAVYFCARGRTGMGAVDYWGQGTSVTVSS
# VL: DVQMTQTASSLSASLGDRVTISCRASQDVYSYLNWYQQKPHGTVKLLIYYTSRLQSGVPSRFTGSGSGTDYSLTISNLEPEDIATYYCQQYNIFPWTFGGGTKLEIKR
# notes: Full-size antibody; also called parental chimeric
# B10: v29452 humanized anti-NaPi2b antibody (antibody, human IgG1, kappa, V domains shown)
# VH: QVQLVQSGAEVKKPGASVKVSCKASGFTFTSYNVHWVRQAPGQGLEWMGAISPGNGDLSYAQKFQGRVTMTRDTSTSTVYMELSSLRSEDTAVYYCARGRTGMGAVDYWGQGTLVTVSS
# VL: DVQMTQSPSSLSASVGDRVTITCRASQDVYSYLNWYQQKPGKAVKLLIYYTSRLQSGVPSRFSGSGSGTDYTLTISSLQPEDIATYYCQQYNIFPWTFGQGTKLEIKR
# notes: Full-size IgG1/kappa; also called H1L3
# B11: v36123, monovalent format of humanized antibody variant 29452 (antibody, V domains shown)
# VH: B10 VH
# VL: DVQMTQSPSSLSASVGDRVTITCRASQDVYSYLNWYQQKPGKAVKLLIYYTSRLQSGVPSRFSGSGSGTDYTLTISSLQPEDIATYYCQQYNIFPWTFGQGTKLEIK
# notes: also called VH1/VL3
# B12: v29456 humanized anti-NaPi2b antibody (antibody, human IgG1, kappa)
# heavy: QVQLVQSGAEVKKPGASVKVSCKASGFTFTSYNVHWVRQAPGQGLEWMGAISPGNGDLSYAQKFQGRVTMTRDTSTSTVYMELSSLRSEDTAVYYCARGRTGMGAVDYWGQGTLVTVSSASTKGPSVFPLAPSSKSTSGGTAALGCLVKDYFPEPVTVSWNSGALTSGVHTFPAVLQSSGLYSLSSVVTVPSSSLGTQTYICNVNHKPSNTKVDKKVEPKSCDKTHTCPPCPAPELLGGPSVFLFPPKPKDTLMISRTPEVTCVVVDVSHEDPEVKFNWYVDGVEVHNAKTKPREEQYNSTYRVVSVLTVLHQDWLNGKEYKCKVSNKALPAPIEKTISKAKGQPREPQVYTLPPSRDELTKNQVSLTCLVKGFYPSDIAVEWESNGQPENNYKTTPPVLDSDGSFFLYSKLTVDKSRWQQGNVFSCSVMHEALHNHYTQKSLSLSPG
# light: B2 light
# notes: Full-size IgG1/kappa; also called H1L2
# B13: v36124, monovalent format of humanized antibody variant 29456 (antibody, V domains shown)
# VH: B10 VH
# VL: B11 VL with I83F
# notes: also called VH1/VL2
# Experiments:
# [1] = biological target: T1, human sodium-dependent phosphate …; assay: cell-based or functional assay
# [2] = biological target: T1, human sodium-dependent phosphate …; assay: cell-based or functional assay; remark: listed apart in the source
# [3] = biological target: T1, human sodium-dependent phosphate …; assay: cell-based or functional assay; remark: listed apart in the source
# [4] = biological target: T1, human sodium-dependent phosphate …; assay: cell-based or functional assay; remark: listed apart in the source
# [5] = biological target: T1, human sodium-dependent phosphate …; assay: cell-based or functional assay; remark: listed apart in the source
# [6] = biological target: T4, KLH (Sigma-Aldrich, H8283); assay: NS-ELISA, plate coated with KLH, mAb at 100 nM; ratio of signal to a buffer well
# T4 construct: Coating protein of the non-specific ELISA (NS-ELISA)
# Procedure: NS-ELISA was used to measure the propensity of the antibodies to bind to a range of biomolecules to emulate the undesirable non-specific interactions to biological matrices in vivo as described below.
# NS-ELISA was carried out in Corning@ 96-well EIA/RIA Easy Wash™ Clear Flat Bottom Polystyrene High Bind Microplate coated overnight at 4° C. with 50 μL of Heparin (Sigma, H3149) diluted with 50 mM sodium carbonate pH 9.6 to a final concentration of 250 μg/mL. The plate was incubated for 2 days at room temperature, wells that were coated with heparin were not covered to allow air dry. […] 50 μL each of insulin, KLH, dsDNA and ssDNA were added to a 96 well plate, followed by the incubation at 37° C. for 2 h. The coating materials were removed, and the plate was blocked with 200 μL of Gibco™ PBS pH7.4, 0.1% Tween®20, and incubated for 1 h at room temperature with shaking at 200 rpm. The plate was washed 3 times with Gibco™ PBS pH7.4, 0.1% Tween 20. 50 μL of each mAb at 100 nM (15 mg/mL) in Gibco™ PBS pH 7.4, 0.1% Tween®20 was added in duplicate to the wells and incubated for 1 h at room temperature with shaking at 200 rpm. […] Plates were incubated for 1 h at room temperature, with shaking at 200 rpm. The plate was washed three times with Gibco™ PBS pH7.4, 0.1% Tween 20, and 100 μL of TMB substrate (Cell Signaling Technology©, 7004P6) added to each well. […] Binding scores were calculated as the ratio of the ELISA signal of the antibody to the signal of a well containing buffer instead of the primary antibody. The cutoffs considered for each binding molecule (ssDNA. KLH, Insulin, dsDNA and Heparin) were internally calculated, based on the average of Zymeworks Inc. produced antibodies and antibodies benchmarks published in the literature.
# [7] = biological target: T2, human sodium-dependent phosphate …; assay: KinExA, IGROV-1 cells, monovalent format
# Procedure: The cell-binding assay was set up using the antibody constructs or variants as constant binding partner at two different concentrations of 50 μM and 500 μM. For the titration curve with antibody variants fixed at 50 μM, at least 10 million IGROV-1 cells were used as titrant. For the titration curve with antibody variants fixed at 500 μM, at least 5 million cells were used as titrant. The antibody variants and cells were mixed in PBS pH 7.4, 1 mg/mL BSA, 0.2% NaN₃ and incubated at 4° C. for 7 days with gentle rotation until equilibrium was reached. After incubation, the mixture of antibody variants and cells was centrifuged to separate the cells from the unbound free antibody variants.
# N-curve analysis was used to calculate the affinity and receptor expression level with the concentrations of antibody variant as reference point.
# cynomolgus monkey NaPi2b = biological target: T3, cynomolgus monkey NaPi2b; assay: flow cytometry, HEK293-6e cells transfected with cynomolgus NaPi2b
# [8] = biological target: T2, human sodium-dependent phosphate …; assay: cell-based or functional assay; remark: listed apart in the source
binder,measurement,setting,value
B1,"EC50 of cytotoxicity, H441 3D spheroids",[1],11.7 nM
same,"EC50 of cytotoxicity, IGROV-1 3D spheroids",[1],0.69 nM
same,"EC50 of cytotoxicity, TOV-21G 3D spheroids",[1],25.5 nM
B2,"EC50 of cytotoxicity, HCC-78 3D spheroids, 6 days, CellTiter-Glo 3D",[2],0.19 nM
same,"EC50 of cytotoxicity, IGROV-1 3D spheroids, 6 days, CellTiter-Glo 3D",[2],0.25 nM
same,"EC50 of cytotoxicity, 2D monolayer, HCC-78 cells, 4 days, CellTiter-Glo",[3],0.6 nM
B3,"EC50 of cytotoxicity, 2D monolayer, IGROV-1 cells",[4],3.01 nM
same,"EC50 of cytotoxicity, 2D monolayer, TOV-21G cells",[4],0.93 nM
same,"EC50 of cytotoxicity, IGROV-1 3D spheroids",[5],0.44 nM
same,"EC50 of cytotoxicity, TOV-21G:HDFa (1:1) 3D spheroids",[5],0.9 nM
B4,"EC50 of cytotoxicity, HCC-78 3D spheroids, 6 days, CellTiter-Glo 3D",[2],0.6 nM
same,"EC50 of cytotoxicity, IGROV-1 3D spheroids, 6 days, CellTiter-Glo 3D",[2],0.27 nM
same,"EC50 of cytotoxicity, 2D monolayer, HCC-78 cells, 4 days, CellTiter-Glo (row printed as v29456-MT-GGFG-AM-DXd1)",[3],0.55 nM
same,"EC50 of cytotoxicity, 2D monolayer, IGROV-1 cells, 4 days, CellTiter-Glo (row printed as v29456-MT-GGFG-AM-DXd1)",[3],0.45 nM
B5,"EC50 of cytotoxicity, HCC-78 3D spheroids, 6 days, CellTiter-Glo 3D",[2],0.33 nM
same,"EC50 of cytotoxicity, IGROV-1 3D spheroids, 6 days, CellTiter-Glo 3D",[2],0.21 nM
same,"EC50 of cytotoxicity, 2D monolayer, HCC-78 cells, 4 days, CellTiter-Glo",[3],0.26 nM
same,"EC50 of cytotoxicity, 2D monolayer, IGROV-1 cells, 4 days, CellTiter-Glo",[3],1.56 nM
B6,"EC50 of cytotoxicity, 2D monolayer, IGROV-1 cells",[4],5.46 nM
same,"EC50 of cytotoxicity, IGROV-1 3D spheroids",[5],0.88 nM
same,"EC50 of cytotoxicity, TOV-21G:HDFa (1:1) 3D spheroids",[5],0.76 nM
B7,"EC50 of cytotoxicity, 2D monolayer, IGROV-1 cells",[4],16.4 nM
same,"EC50 of cytotoxicity, IGROV-1 3D spheroids",[5],1.31 nM
same,"EC50 of cytotoxicity, TOV-21G:HDFa (1:1) 3D spheroids",[5],0.99 nM
B8,"EC50 of cytotoxicity, H441 3D spheroids",[1],1.57 nM
same,"EC50 of cytotoxicity, IGROV-1 3D spheroids",[1],0.55 nM
same,"EC50 of cytotoxicity, TOV-21G 3D spheroids",[1],0.54 nM
same,"EC50 of cytotoxicity, 2D monolayer, IGROV-1 cells",[4],0.39 nM
same,"EC50 of cytotoxicity, 2D monolayer, TOV-21G cells",[4],4.3 nM
same,"EC50 of cytotoxicity, IGROV-1 3D spheroids",[5],0.31 nM
same,"EC50 of cytotoxicity, TOV-21G:HDFa (1:1) 3D spheroids",[5],0.24 nM
B9,NS-ELISA binding score,[6],2.38
B10,NS-ELISA binding score,[6],1.34
B11,fold lower binding affinity than chimeric parental antibody construct,[7],~2 fold
B12,NS-ELISA binding score,[6],1.37
same,fold lower apparent Kd than v18992 (MX35),cynomolgus monkey NaPi2b,10 fold
same,fold lower apparent Kd than v18993 (lifastuzumab),cynomolgus monkey NaPi2b,2 fold
same,"Internalized Fluorescence Fold-Over Palivizumab, HCC-78, 5 hrs, 10 nM",[8],25.3 fold
same,"Internalized Fluorescence Fold-Over Palivizumab, HCC-78, 24 hrs, 10 nM",[8],59.9 fold
same,"Internalized Fluorescence Fold-Over Palivizumab, NCI-H441, 5 hrs, 10 nM",[8],2.4 fold
same,"Internalized Fluorescence Fold-Over Palivizumab, NCI-H441, 24 hrs, 10 nM",[8],4 fold
B13,fold lower binding affinity than chimeric parental antibody construct,[7],~2 fold
